# Laboratory results from paper PMC7666158.
# Columns and labels:
# [1] = molecular target: JNK1-dc20 (JNK1 with the C-terminal 20 residues truncated) (human) (UniProt P45983); assay: fluorescence polarisation; competitive: 50 nM CF-evJIP with JNK1 at ~60–80% complex, titrated with unlabeled competitor; 20 mM Tris pH 8.0, 100 mM NaCl, 0.05% Brij35P, 2 mM TCEP; 384-well plates
# [2] = molecular target: pp-p38 (double-phosphorylated, activated p38α) (human) (UniProt Q16539); assay: competition in an in vitro kinase assay; 2 nM pp-p38, 2 µM MBP-ATF2 substrate, 3-fold dilution series of peptide from 1 mM; phospho-ATF2 dot blot; Ki = IC50/(1 + S/KM), KM 17.3 µM
# [3] = molecular target: CF-evJIP (carboxyfluorescein-labeled reporter docking peptide); assay: fluorescence polarisation; direct titration: 50 nM CF-evJIP, JNK1 concentration increased; 20 mM Tris pH 8.0, 100 mM NaCl, 0.05% Brij35P, 2 mM TCEP; 384-well plates
Ki [2] [µM],Substance,also measured
–,ATF2(19–100) Q34R/H47R (mutant construct of the FP assay of Fig. 2b) (from UniProt P15336-1 19-100) (domain or fragment),fold stronger binding than the wild type [1]: 100 fold
7.5,SPFENEF peptide (ATF2 83–102) S90N (from UniProt P15336-1 83-102),–
820,SPFENEF peptide (ATF2 83–102) phospho-S90,–
33.6,"SPFENEF peptide (ATF2 83–102), WT",–
–,MBP-c-Jun(1–78) K35E (domain or fragment),fold decrease in binding against the wild type [1]: 10 fold
–,JNK1-dc20 (JNK1 where the C-terminal 20 residues are truncated) (from UniProt P45983 1-364) (enzyme),Kd [3]: 0.47 µM
